The labels stand for the following.
B1: BACE029 (peptide)
peptide: Ac-EESMYCRLLGIGCG-NH2
modifications: disulfide 6-13 (inferred)
notes: N-terminal truncation of BACE020
B2: BACE033 (peptide)
peptide: Ac-YCRLLGIGCG-NH2
modifications: disulfide 2-9 (inferred)
B3: BACE030 (peptide)
peptide: Ac-ESMYCRLLGIGCG-NH2
modifications: disulfide 5-12
SMILES: CC[C@H](C)[C@@H]1NC(=O)CNC(=O)[C@H](CC(C)C)NC(=O)[C@H](CC(C)C)NC(=O)[C@H](CCCNC(=N)N)NC(=O)[C@@H](NC(=O)[C@H](Cc2ccc(O)cc2)NC(=O)[C@H](CCSC)NC(=O)[C@H](CO)NC(=O)[C@H](CCC(=O)O)NC(C)=O)CSSC[C@@H](C(=O)NCC(N)=O)NC(=O)CNC1=O
notes: Minimal version of BACE020 with full activity
B4: BACE058 (peptide)
peptide: Ac-ESMYCKLLGIGCG-NH2
modifications: disulfide 5-12 (inferred)
notes: also called BACE030 with Arg to lysine
B5: BACE057 (peptide)
peptide: Ac-ESMYCALLGIGCG-NH2
modifications: disulfide 5-12 (inferred)
B6: BMS1 (peptide)
peptide: Ac-NLTTYPYFIPLP-NH2
notes: also called Peptide 1 of Kornacker et al
B7: BACE042 (peptide)
peptide: Ac-AEESMYCRLLGIGCG-NH2
modifications: disulfide 7-14 (inferred)
notes: also called BACE020 position 1 to Ala
B8: BACE043 (peptide)
peptide: Ac-NAESMYCRLLGIGCG-NH2
modifications: disulfide 7-14 (inferred)
notes: also called BACE020 Glu2 to Ala
B9: BACE032 (peptide)
peptide: Ac-MYCRLLGIGCG-NH2
modifications: disulfide 3-10 (inferred)
B10: BACE031 (peptide)
peptide: Ac-SMYCRLLGIGCG-NH2
modifications: disulfide 4-11 (inferred)
notes: also called BACE31
B11: SEQ ID NO 75 (peptide)
chain: IEESIYCRLLGFGCG
notes: not shown: M13 major coat protein; peptide fused to its N-terminus
B12: SEQ ID NO 77 (peptide)
chain: DVESVYCRLLGLGCG
modifications: not fully specified (C-terminus, bridges); cysteine pairing not given here
notes: as for B11
B13: SEQ ID NO 85 (peptide)
chain: KEESIYCRLLGHGCG
modifications: not fully specified (C-terminus, bridges); cysteine pairing not given here
notes: as for B11
B14: SEQ ID NO 95 (peptide)
chain: NDENMYCRLLGLGCA
modifications: not fully specified (C-terminus, bridges); cysteine pairing not given here
notes: as for B11
B15: SEQ ID NO 79 (peptide)
chain: TEESLYCRLLGVGCG
modifications: not fully specified (C-terminus, bridges); cysteine pairing not given here
notes: as for B11
B16: SEQ ID NO 71 (peptide)
chain: KEENIYCRLLSLGCS
notes: as for B11
B17: SEQ ID NO 88 (peptide)
chain: HEDHLYCRLLGIGCG
modifications: not fully specified (C-terminus, bridges); cysteine pairing not given here
notes: as for B11
B18: SEQ ID NO 84 (peptide)
chain: TDESIYCRLLSIACG
modifications: not fully specified (C-terminus, bridges); cysteine pairing not given here
notes: as for B11
B19: SEQ ID NO 89 (peptide)
chain: KEESLYCRLLGLGCG
modifications: not fully specified (C-terminus, bridges); cysteine pairing not given here
notes: as for B11
B20: SEQ ID NO 73 (peptide)
chain: KEDSMYCRLLGLGCG
modifications: not fully specified (C-terminus, bridges); cysteine pairing not given here
notes: as for B11
B21: SEQ ID NO 82 (peptide)
chain: NDDSLYCRLLGLGCG
modifications: not fully specified (C-terminus, bridges); cysteine pairing not given here
notes: as for B11
B22: SEQ ID NO 94 (peptide)
chain: NDEHMYCRLLGLDCN
modifications: not fully specified (C-terminus, bridges); cysteine pairing not given here
notes: as for B11
B23: SEQ ID NO 90 (peptide)
chain: TEESIYCRLLGLGCD
notes: as for B11
B24: SEQ ID NO 81 (peptide)
chain: NVEHIHCRLLGLGCG
modifications: not fully specified (C-terminus, bridges); cysteine pairing not given here
notes: as for B11
B25: SEQ ID NO 76 (peptide)
chain: NGDNMYCRLLGLGCE
modifications: not fully specified (C-terminus, bridges); cysteine pairing not given here
notes: as for B11
B26: SEQ ID NO 78 (peptide)
chain: NDESVYCRLLGIGCG
notes: as for B11
B27: SEQ ID NO 80 (peptide)
chain: KEESIHCRLLGLGCG
notes: as for B11
B28: SEQ ID NO 93 (peptide)
chain: NPENNYCRLLNLGCG
notes: as for B11
B29: SEQ ID NO 86 (peptide)
chain: NEENMYCRLMGIGCG
modifications: not fully specified (C-terminus, bridges); cysteine pairing not given here
notes: as for B11
B30: SEQ ID NO 69 (peptide)
chain: NMESVHCRLLGLGCG
notes: as for B11
B31: SEQ ID NO 92 (peptide)
chain: NEVSLYCRLLDLGCG
modifications: not fully specified (C-terminus, bridges); cysteine pairing not given here
notes: as for B11
B32: SEQ ID NO 70 (peptide)
chain: NEESIYCRLLGLGCG
modifications: not fully specified (C-terminus, bridges); cysteine pairing not given here
notes: as for B11
B33: SEQ ID NO 83 (peptide)
chain: YEESIYCRLLGIGCG
modifications: not fully specified (C-terminus, bridges); cysteine pairing not given here
notes: as for B11
B34: SEQ ID NO 72 (peptide)
chain: NEESIYCRLLGLACG
modifications: not fully specified (C-terminus, bridges); cysteine pairing not given here
notes: as for B11
B35: SEQ ID NO 87 (peptide)
chain: YEESIYCRLLGLGCG
modifications: not fully specified (C-terminus, bridges); cysteine pairing not given here
notes: as for B11
B36: SEQ ID NO 74 (peptide)
chain: VEESIYCRLLGLGCG
notes: as for B11
B37: SEQ ID NO 91 (peptide)
chain: AEESIYCRLLGLGCG
modifications: not fully specified (C-terminus, bridges); cysteine pairing not given here
notes: as for B11

Positions of bridges follow the written chain, without caps; N, C: chain ends. No end group written: not given here. A value given as a limit tells only on which side of the number the result lay.

In the first experiment the target is T1, recombinant human BACE1 (rhBACE1) (human, UniProt P56817 22-457, limits assumed). Put plainly: cell-based or functional assay.
T1 sequence (P56817 22-457 limits assumed): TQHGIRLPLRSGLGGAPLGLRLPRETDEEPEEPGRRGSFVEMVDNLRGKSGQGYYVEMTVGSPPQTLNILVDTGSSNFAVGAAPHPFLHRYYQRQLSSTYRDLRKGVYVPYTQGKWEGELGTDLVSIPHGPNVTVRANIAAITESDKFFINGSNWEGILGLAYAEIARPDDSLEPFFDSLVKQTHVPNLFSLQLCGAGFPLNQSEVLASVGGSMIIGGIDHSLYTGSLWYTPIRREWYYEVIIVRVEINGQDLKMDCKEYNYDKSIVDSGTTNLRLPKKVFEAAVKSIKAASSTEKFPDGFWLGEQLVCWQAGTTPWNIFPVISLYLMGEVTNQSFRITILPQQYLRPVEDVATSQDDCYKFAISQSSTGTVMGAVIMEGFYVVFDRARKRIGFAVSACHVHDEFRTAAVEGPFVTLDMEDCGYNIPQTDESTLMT
On to B1, for which the “Caliper (MCE) BACE1 activity assay IC50” value came to 13 nM.

As to B2, the “Caliper (MCE) BACE1 activity assay IC50” value stood at 10900 nM.

With B3, the “Caliper (MCE) BACE1 activity assay IC50” value turned out to be 18 nM.

Turning to B4, the “Caliper (MCE) BACE1 activity assay IC50” value is 74 nM. The same measure, in the same setting: to B5 belongs > 10000 nM. Take B6: the “Caliper (MCE) BACE1 activity assay, EC50 (rate increased)” value was determined as 227 nM. In the case of B7, the “Caliper (MCE) BACE1 activity assay IC50” value worked out at 12 nM. Turning to B8, the “Caliper (MCE) BACE1 activity assay IC50” value turned out to be 13 nM. The same measure, in the same setting: to B9 belongs 8090 nM. The same measure, in the same setting: to B10 belongs 1280 nM.

The target of a further experiment is T1, recombinant human BACE1 (rhBACE1). Put plainly: spot phage ELISA, plate-immobilized BACE1 against BSA.
As for B11, the “fold improvement of signal/noise ratio over parent BACE017” value (from here on “fold improvement of signal/noise ratio”) is > 5 fold. On the same count and under the same terms, to B12 belongs > 5 fold; to B13, > 5 fold; to B14, > 5 fold.

B15: the “fold improvement of signal/noise ratio” value is > 5 fold.

In the case of B16, the “fold improvement of signal/noise ratio” value is > 5 fold. The same measure, in the same setting: for B17 the value was > 5 fold; for B18, > 5 fold. Consider B19, for which the “fold improvement of signal/noise ratio” value was > 5 fold.

Regarding B20, the “fold improvement of signal/noise ratio” value is > 5 fold. Still for that read-out and setting: to B21 belongs > 5 fold; to B22, > 5 fold. On the same count and under the same terms, to B23 belongs > 5 fold; to B24, > 5 fold. Same read-out and setting: for B25 the value was > 5 fold; for B26, > 5 fold; for B27, > 5 fold. With B28, the “fold improvement of signal/noise ratio” value is > 5 fold. Regarding B29, the “fold improvement of signal/noise ratio” value is > 5 fold. The same measure, in the same setting: for B30 the value was > 5 fold.

As to B31, the “fold improvement of signal/noise ratio” value is > 5 fold. As for B32, the “fold improvement of signal/noise ratio” value was > 5 fold. Same read-out and setting: for B33 the value was > 5 fold; for B34, > 5 fold. In the case of B35, the “fold improvement of signal/noise ratio” value is > 5 fold.

On to B36, for which the “fold improvement of signal/noise ratio” value is > 5 fold. Still for that read-out and setting: to B37 belongs > 5 fold.

A further experiment has the same target. Put plainly: FP competition binding; 12 nM rhBACE1, competitor probe 5-TAMRA-BACE020. On the procedure: BACE1 binding assays were carried out in a final volume of 10 μL per well in black 384-well microplates (Proxiplate-Plus; Perkin Elmer, Waltham, Mass.). […] The reaction was permitted to proceed towards equilibrium for 2 h at ambient temperature prior to fluorescence polarization measurement using Envision (Perkin Elmer). The parallel and perpendicular fluorescent emissions measured in each well at 595 nm (excitation 531 nm polarized light) were used to determine the milli-polarization level (mP) using the following formula: mP=1000*(S−G*P)/(S+G*P) where S=parallel emission, P=perpendicular emission and G=0.65.
The affinities of BACE1 peptide ligands were measured using the abovementioned competition binding FP assay for determining IC₅₀ values with serially diluted peptides. A Caliper assay was used to measure the inhibition of BACE1 enzymatic activity by peptide ligands.
Regarding B1, the IC50 was found to be 12 nM. Regarding B3, the IC50 came to 23 nM.

Turning to B4, the concentration for half-maximal inhibition (IC50) worked out at 486 nM. Same read-out and setting: to B6 belongs > 10000 nM; to B7, 31 nM.

With B8, the IC50 worked out at 41 nM. The same measure, in the same setting: for B10 the value was 2600 nM.

In general, IC50 refers to the point on the concentration scale where inhibition reaches its midpoint.

Source of the values: patent publication US20140228277A1 (Genentech, published 2014).
